Experimental data as given in patent US20060057696A1, “Sugar chain synthases” (priority 2002, published 2006).

Tests used:
Type in all cases: biochemical
[1] = molecular target: T1, PA-mST8Sia VI (mouse ST8Sia VI) (Mus musculus, UniProt Q8K4T1); test: Sialyltransferase activity of PA-mST8Sia VI toward acceptor substrates; conditions: for Relative rate (%) Mouse ST8SiaVI: incorporation with Fetuin taken as 100, substrate 0.5 mg/ml glycolipids, 1 mg/ml glycoproteins, monosaccharides and oligosaccharides
T1 construct: amino acids 26-398 in the case of mouse ST8Sia VI; signal peptide of mouse immunoglobulin IgM (N); made in house; host or cells: COS-7 cells, transient expression of pcDSA-mST8Sia VI; protein recovered from medium on IgG-Sepharose
T1 sequence (Q8K4T1 26-398): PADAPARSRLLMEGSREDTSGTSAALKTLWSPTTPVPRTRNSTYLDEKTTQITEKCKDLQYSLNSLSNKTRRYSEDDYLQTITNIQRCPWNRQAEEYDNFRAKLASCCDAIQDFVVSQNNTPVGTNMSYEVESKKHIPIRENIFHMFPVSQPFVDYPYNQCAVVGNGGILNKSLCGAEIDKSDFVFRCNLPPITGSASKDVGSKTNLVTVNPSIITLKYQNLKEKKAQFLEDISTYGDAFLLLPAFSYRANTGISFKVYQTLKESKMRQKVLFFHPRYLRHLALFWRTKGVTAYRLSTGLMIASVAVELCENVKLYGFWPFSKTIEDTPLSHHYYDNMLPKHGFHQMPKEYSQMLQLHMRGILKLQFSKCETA
How it was run: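 Protein A-tagged mouse or human enzyme secreted from transiently transfected COS-7 cells, captured on IgG-Sepharose. Reaction at pH 6.0 (MES, MgCl2, CaCl2, Triton CF-54) with 100 μM CMP-[^14C]-NeuAc and acceptor (0.5 mg/ml glycolipids; 1 mg/ml glycoproteins/oligosaccharides), 37 °C for 3–20 h; products resolved by HPTLC or SDS-PAGE and radioactivity quantified.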

mouse ST8Sia III = molecular target: T2, mouse ST8Sia III (Mus musculus, UniProt Q64689); test: N-glycanase treatment of Fetuin sialylated with [14C]-NeuAc by mouse ST8Sia III
T2 sequence (Q64689 1-380): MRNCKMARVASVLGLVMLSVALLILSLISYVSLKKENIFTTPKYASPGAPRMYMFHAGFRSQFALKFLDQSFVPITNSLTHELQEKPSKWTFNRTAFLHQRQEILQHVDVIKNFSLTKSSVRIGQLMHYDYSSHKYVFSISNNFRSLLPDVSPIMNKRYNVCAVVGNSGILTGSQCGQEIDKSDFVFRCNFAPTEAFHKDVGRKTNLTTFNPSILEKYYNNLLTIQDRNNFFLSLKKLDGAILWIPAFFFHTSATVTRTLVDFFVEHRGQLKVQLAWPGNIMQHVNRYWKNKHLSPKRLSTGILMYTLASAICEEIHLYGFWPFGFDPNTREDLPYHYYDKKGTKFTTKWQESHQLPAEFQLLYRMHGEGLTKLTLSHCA
Protocol: (§1) In FIG. 4, Fetuin was [^14C]-NeuAc-incorporated by ST8Sia III or ST8Sia VI and then treated with N-glycanase. The [^14C]-NeuAc-incorporated Fetuin was treated with N-glycanase, and the treated product was analyzed by SDS-PAGE. Thereafter, it was visualized with a BAS2000 radio image analyzer.
(§2) It was found by an N-glycanase treatment that when Fetuin was used as a substrate, the majority of sialic acid, which was newly introduced by PA-mST8Sia VI, was incorporated into O-glycans (FIG. 4). That is, when Fetuin was sialylated by PA-mST8Sia VI with [^14C]-NeuAc, and the sialylated product was then treated with N-glycanase, which releases N-glycans from a peptide portion. The majority (82.7%) of radioactivity was still kept in the Fetuin after this treatment. […] On the other hand, the same experiment was carried out using mouse ST8Sia III, which used N-glycans of Fetuin as substrates.

PA-mST8Sia VI = molecular target: T3, PA-mST8Sia VI (Mus musculus, UniProt Q8K4T1); test: N-glycanase treatment of Fetuin sialylated with [14C]-NeuAc by PA-mST8Sia VI; conditions: sialylated by PA-mST8Sia VI with [14C]-NeuAc; shows incorporation into O-glycans
T3 construct: amino acids 26-398 in the case of mouse ST8Sia VI; signal peptide of mouse immunoglobulin IgM (N); made in house; host or cells: COS-7 cells, transient expression of pcDSA-mST8Sia VI; protein recovered from medium on IgG-Sepharose
T3 sequence (Q8K4T1 26-398): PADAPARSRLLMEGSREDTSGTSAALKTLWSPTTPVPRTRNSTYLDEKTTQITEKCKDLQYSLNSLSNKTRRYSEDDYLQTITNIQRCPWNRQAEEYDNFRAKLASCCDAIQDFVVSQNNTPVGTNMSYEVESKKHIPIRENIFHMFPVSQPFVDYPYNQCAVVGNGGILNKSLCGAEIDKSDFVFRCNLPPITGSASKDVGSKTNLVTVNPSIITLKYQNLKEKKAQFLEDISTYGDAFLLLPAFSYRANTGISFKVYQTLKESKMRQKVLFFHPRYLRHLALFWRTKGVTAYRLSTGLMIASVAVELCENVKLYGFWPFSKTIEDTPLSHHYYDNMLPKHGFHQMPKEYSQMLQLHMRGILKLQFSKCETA
Protocol: as §1, §2

“Asialo- α1-Acid glycoprotein: desialylated α1-acid glycoprotein prepared at 80° C. for 1 hour in 0.02 N HCl” was tested. Which “Relative rate (%) Mouse ST8SiaVI” value [1] did it give?
The value was 0%.

How did the “Relative rate (%) Mouse ST8SiaVI” value [1] turn out when “Asialofetuin: asialo glycoprotein acceptor substrate purchased from Sigma” was run?
Its value is 0%.

With “Fetuin: glycoprotein acceptor substrate containing both O-glycans and N-glycans, purchased from Sigma” as the molecule, how does the “radioactivity in Fetuin after N-glycanase treatment (in words)” value (mouse ST8Sia III) read?
The value was “completely disappeared”.

And the “radioactivity still kept in the Fetuin after N-glycanase treatment” value (PA-mST8Sia VI)?
The value was 82.7%.

What about the “activity of PA-mST8Sia VI on the substrate (in words)” value [1] of the same molecule?
The value was “showed activity”.

What about the “Relative rate (%) Mouse ST8SiaVI” value [1] of the same molecule?
Its value is 100%.

How did the “Relative rate (%) Mouse ST8SiaVI” value [1] turn out when “Galβ1,3GalNAcβ1,4(NeuAcα2,3)Galβ1,4Glcβ1-Cer [GM1a]” was run?
Its value is 0%.

How did the “Relative rate (%) Mouse ST8SiaVI” value [1] turn out when Galβ1,4Glcβ1-Cer [Lactosylceramide] was run?
Its value is 0%.

What does the source list for NeuAcα2,3Galβ1,4Glcβ1-Cer [GM3]?
Km [1]: 500 µM; Vmax value [1]: 0.67 pmol/h/ml enzyme solution; activity of PA-mST8Sia VI on the substrate (in words) [1]: showed activity; Relative rate (%) Mouse ST8SiaVI [1]: 13.0%

How did the “Relative rate (%) Mouse ST8SiaVI” value [1] turn out when “α1-Acid glycoprotein: glycoprotein acceptor substrate purchased from Sigma” was run?
Its value is 0%.

B1: Ovomucoid: glycoprotein acceptor substrate which contains only N-glycans (protein, UniProt P01005 25-210, looked up)
Ovomucoid: AEVDCSRFPNATDKEGKDVLVCNKDLRPICGTDGVTYTNDCLLCAYSIEFGTNISKEHDGECKETVPMNCSSYANTTSEDGKVMVLCNRAFNPVCGTDGVTYDNECLLCAHKVEQGASVDKRHDGGCRKELAAVSVDCSEYPKPDCTAEDRPLCGSDNKTYGNKCNFCNAVVESNGTLTLSHFGKC
With B1 as the molecule, how does the “activity of PA-mST8Sia VI on the substrate (in words)” value [1] read?
Its value is “showed activity”.

What about the “Relative rate (%) Mouse ST8SiaVI” value [1] of the same molecule?
Its value is 6.2%.

B2: Asialoovomucoid: desialylated ovomucoid prepared at 80° C. for 1 hour in 0.02 N HCl (protein, UniProt P01005 25-210, looked up)
Ovomucoid: AEVDCSRFPNATDKEGKDVLVCNKDLRPICGTDGVTYTNDCLLCAYSIEFGTNISKEHDGECKETVPMNCSSYANTTSEDGKVMVLCNRAFNPVCGTDGVTYDNECLLCAHKVEQGASVDKRHDGGCRKELAAVSVDCSEYPKPDCTAEDRPLCGSDNKTYGNKCNFCNAVVESNGTLTLSHFGKC
modifications: desialylated
notes: desialylated ovomucoid prepared at 80° C. for 1 hour in 0.02 N HCl
B2 was tested. Which “Relative rate (%) Mouse ST8SiaVI” value [1] did it give?
The value was 0%.
